Reference: patent publication US20230235048A1 (PROTHENA BIOSCIENCES, published 2023)

T1: extracellular domain (ECD) of recombinant human Sortilin with a C-terminal HIS tag (ECD-huSortilin-HIS) (human, UniProt Q99523 78-755)
T1 construct: Bought (R&D Systems); also called human sortilin-ECD; not shown: C-terminal HIS tag
T1 sequence: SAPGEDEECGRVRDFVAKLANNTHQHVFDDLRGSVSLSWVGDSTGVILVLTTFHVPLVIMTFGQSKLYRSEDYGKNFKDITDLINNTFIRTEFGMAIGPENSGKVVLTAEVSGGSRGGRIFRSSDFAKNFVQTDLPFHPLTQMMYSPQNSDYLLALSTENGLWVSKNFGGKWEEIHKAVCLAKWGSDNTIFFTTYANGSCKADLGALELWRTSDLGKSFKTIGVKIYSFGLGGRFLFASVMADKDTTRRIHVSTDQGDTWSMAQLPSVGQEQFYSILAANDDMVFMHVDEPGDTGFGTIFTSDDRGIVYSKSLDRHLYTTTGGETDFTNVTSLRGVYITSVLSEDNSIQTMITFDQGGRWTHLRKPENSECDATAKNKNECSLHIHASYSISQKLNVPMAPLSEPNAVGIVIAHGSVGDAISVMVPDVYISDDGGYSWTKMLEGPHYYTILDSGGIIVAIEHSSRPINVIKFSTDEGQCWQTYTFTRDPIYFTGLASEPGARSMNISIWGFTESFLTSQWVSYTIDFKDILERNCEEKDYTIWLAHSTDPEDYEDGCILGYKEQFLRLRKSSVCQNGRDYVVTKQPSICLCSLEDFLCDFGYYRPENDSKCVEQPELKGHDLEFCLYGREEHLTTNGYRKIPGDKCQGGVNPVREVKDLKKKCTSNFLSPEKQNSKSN


Columns and labels:
[1] = target: T1, extracellular domain (ECD) of …; experiment: ELISA, ECD-huSortilin-HIS coated at 1 ug/mL, goat anti-human IgG-HRP, chemiluminescence
Procedure: 384-well ELISA plates were coated with 1 ug/mL recombinant ECD-huSortilin-HIS (20 uL/well) and incubated overnight at 4° C. all plates were blocked with 3% BSA in PBS for 1 hour at room temperature. Plates were then washed with Tris buffered saline containing 0.1% Tween20 (TBST) three times. 20 uL of humanized anti-Sortilin mAbs diluted 3-fold from 20 ug/mL to 0.3 ng/mL in 1% BSA in TBST were added to the wells, incubated for 1 hour at room temperature and then washed as above. Goat anti-human IgG specific-HRP (Jackson Immunoresearch) diluted 1:7000 in 1% BSA in TBST was then added at 20 uL per well to react with the bound antibodies and plates were incubated for 1 hour before being washed as above. Super signal Pico chemiluminescent ELISA substrate (ThermoFisher) was used for detection. 20 uL of substrate was added to each well and Relative Light Units (RLU) were measured immediately using the SpectraMax Paradigm (Molecular Devices). Data was analyzed and EC₅₀ was calculated using graphed Prism.

[2] = target: T1, extracellular domain (ECD) of …; experiment: SPR (Biacore T200), mAb captured by anti-human antibody on CM5, Sortilin 0.1-300 nM as analyte, global 1:1 fit
Procedure: Analysis was performed using a Biacore T200 to compare the binding affinity of chimeric and humanized antibodies to recombinant human Sortilin. Anti-Human antibody was immobilized on sensor chip CM5 (GE Healthcare Life Sciences) via amine coupling, and humanized antibodies (ligand) were captured to a level to ensure a maximum binding of analyte of 50 RU (approximately 100 RU of ligand binding). Various concentrations of Sortilin (ranging from 0.1 nM to 300 nM) were passed over the captured ligand at 50 μL/min in running buffer (HBS+0.05% P-20, 1 mg/mL BSA) for 300s association time and 1200s dissociation time. Regeneration of the chip surface was accomplished by 2 short injections of 3M MgCl. Data was blank subtracted to both a sensor not containing ligand and 0 nM analyte concentration. Analysis was performed using a global 1:1 fit with Biacore Insight Evaluation software (v2.0) with bulk refractive index set to zero RU.

Binder | EC50 [1] [µg/mL] | Kd [2] [nM] | koff [2] [s⁻¹] | kon [2] [M⁻¹ s⁻¹]
humanized 8H24 hu8H24VHv1/hu8H24VLv1 (antibody, V domains shown, Human IgG; also called 8H24H1L1) VH: QAQLVQSGAEVKKPGSSVKVSCKASGYTFTSYSMHWVRQAPGQGLEWIGAIYPGNDATSYNQKFKGRATLTVDKSTSTAYMELSSLRSEDTAVYFCAREGYYGSSFEAWFASWGQGTTVTVSS VL: DVVMTQTPLSLPVTPGEPASISCRSSQSIVHSNGNTYLEWYLQKPGQSPQLLIYKVSNRFSGVPDRFSGSGSGTDFTLKISRVEAEDVGVYYCFQGSHVLPTFGGGTKVEIK | 0.14 | 2.22 | 0.00141 | 637000
humanized 5E20 hu5E20VHv3/hu5E20VLv3 (antibody, V domains shown, Human IgG; also called 5E20H3L3) VH: EVQLVESGGGLVQPGGSLRLSCAASGFTFSTYGMSWVRQAPGKRLEWVAIISSGGSYTYYSDTVKGRFTISRDNSKNSLYLQMNSLRAEDTAVYYCSRSSSHWYFDVWGQGTLVTVSS VL: DIQMTQSPSSVSASVGDRVTITCHASQGISSNIGWLQQKPGKAFKGLIYHGTNLKDGVPSRFSGSGSGADFTLTISSLQPEDFATYFCVQYAQFPYTFGQGTKVEKR | 0.09 | 15.3 | 0.0028 | 183000
humanized 5E20 hu5E20VHv5/hu5E20VLv3 (antibody, V domains shown, Human IgG; also called 5E20H5L3) VH: EVQLVESGGGLVQPGGSLRLSCAASGFTFSTYGMSWVRQAPDKRLEWVAIISSGGSYTYYSDTVKGRFTISRDNSKNSLYLQMNSLKAEDTAVYYCSRSSSHWYFDVWGQGTLVTVSS VL: DIQMTQSPSSVSASVGDRVTITCHASQGISSNIGWLQQKPGKAFKGLIYHGTNLKDGVPSRFSGSGSGADFTLTISSLQPEDFATYFCVQYAQFPYTFGQGTKVEKR | 0.07 | 6.01 | 0.0014 | 233000
humanized 5E20 hu5E20VHv5/hu5E20VLv4 (antibody, V domains shown, Human IgG; also called 5E20H5L4) VH: EVQLVESGGGLVQPGGSLRLSCAASGFTFSTYGMSWVRQAPDKRLEWVAIISSGGSYTYYSDTVKGRFTISRDNSKNSLYLQMNSLKAEDTAVYYCSRSSSHWYFDVWGQGTLVTVSS VL: DIQMTQSPSSVSASVGDRVTITCHASQGISSNIGWLQQKPGKAFKGLIYHGTNLKDGVPSRFSGSGSGADFTLTISSLQPEDFADYFCVQYAQFPYTFGQGTKVEKR | 0.05 | 5.46 | 0.00115 | 211000
humanized 5E20 hu5E20VHv4/hu5E20VLv4 (antibody, V domains shown, Human IgG; also called 5E20H4L4) VH: EVQLVESGGGLVQPGGSLRLSCAASGFTFSTYGMSWVRQAPDKRLEWVAIISSGGSYTYYSDTVKGRFTISRDNSKNSLYLQMNSLRAEDTAVYYCSRSSSHWYFDVWGQGTLVTVSS VL: DIQMTQSPSSVSASVGDRVTITCHASQGISSNIGWLQQKPGKAFKGLIYHGTNLKDGVPSRFSGSGSGADFTLTISSLQPEDFADYFCVQYAQFPYTFGQGTKVEKR | 0.04 | 5.57 | 0.00117 | 209000
humanized 5E20 hu5E20VHv3/hu5E20VLv4 (antibody, V domains shown, Human IgG; also called 5E20H3L4) VH: EVQLVESGGGLVQPGGSLRLSCAASGFTFSTYGMSWVRQAPGKRLEWVAIISSGGSYTYYSDTVKGRFTISRDNSKNSLYLQMNSLRAEDTAVYYCSRSSSHWYFDVWGQGTLVTVSS VL: DIQMTQSPSSVSASVGDRVTITCHASQGISSNIGWLQQKPGKAFKGLIYHGTNLKDGVPSRFSGSGSGADFTLTISSLQPEDFADYFCVQYAQFPYTFGQGTKVEKR | 0.07 | 14.8 | 0.00257 | 174000
humanized 5E20 hu5E20VHv4/hu5E20VLv3 (antibody, V domains shown, Human IgG; also called 5E20H4L3) VH: EVQLVESGGGLVQPGGSLRLSCAASGFTFSTYGMSWVRQAPDKRLEWVAIISSGGSYTYYSDTVKGRFTISRDNSKNSLYLQMNSLRAEDTAVYYCSRSSSHWYFDVWGQGTLVTVSS VL: DIQMTQSPSSVSASVGDRVTITCHASQGISSNIGWLQQKPGKAFKGLIYHGTNLKDGVPSRFSGSGSGADFTLTISSLQPEDFATYFCVQYAQFPYTFGQGTKVEKR | 0.07 | 6.36 | 0.00145 | 228000
chimeric 5E20 (antibody, human IgG1, kappa, L234A L235A, V domains shown, The entries are described as 'a chimeric 5E20 heavy chain' and 'light chain') VH: EVQLVESGGDLVKPGGSLKLSCAAPGFTFSTYGMSWVRQTPDKRLEWVAIISSGGSYTYYSDTVKGRFTISRDNAKNTLYLQMSSLKSEDTAMYYCSRSSSHWYFDVWGTGTTVTVSS VL: DILMTQSPSSMSVSLGDTVSITCHASQGISSNIGWLQQKPGKSFKGLIYHGTNLKDGVPSRFSGSGSGADFSLTISSLESEDFADYFCVQYAQFPYTFGGGTKLEIKR | 0.07 | 0.66 | – | –

The remaining lines, values ahead:

EC50 [1] [µg/mL] | Kd [2] [nM] | koff [2] [s⁻¹] | kon [2] [M⁻¹ s⁻¹] | Binder
0.1 | 7.91 | 0.00344 | 435000 | humanized 11M14 hu11M14VHv3b/hu11M14VLv4b (antibody, V domains shown, Human IgG; also called 11M14H3bL4b) VH: EVQLVESGGGLVQPGGSLRLSCAASGFTFNIYGMSWVRQAPGKGLEWVATISSGGIYTYYPDILKGRFTISRDNAKNSLYGQMNSLRAEDTAVYYCARHPGGAMDYWGQGTLVTVSS VL: DIQMTQSPSSLSASVGDRVTITCRVSENIYSNLAWYQQKPGKSPKLLVYAATNIADGVPSRFSGSGSGTDYTLTISSLQPEDFATYYCQHFWGTPPWTFGQGTKLEIK
0.1 | 2.98 | 0.00134 | 450000 | humanized 8H24 hu8H24VHv1/hu8H24VLv2 (antibody, V domains shown, Human IgG; also called 8H24H1L2; hu8H24H1L2) VH: QAQLVQSGAEVKKPGSSVKVSCKASGYTFTSYSMHWVRQAPGQGLEWIGAIYPGNDATSYNQKFKGRATLTVDKSTSTAYMELSSLRSEDTAVYFCAREGYYGSSFEAWFASWGQGTTVTVSS VL: DVVMTQTPSSLPVTPGEPASISCRSSQSIVHSNGNTYLEWYLQKPGQSPQLLIYKVSNRFSGVPDRFSGSGSGTDFTLTISRVEAEDVGVYYCFQGSHVLPTFGGGTKVEIK
0.06 | 2.29 | 0.00157 | 684000 | humanized 8H24 hu8H24VHv2/hu8H24VLv1 (antibody, V domains shown, Human IgG; also called 8H24H2L1) VH: QAQLVQSGAEVVKPGSSVKVSCKASGYTFTSYSMHWVRQAPGQGLEWIGAIYPGNDATSYNQKFKGRATLTVDKSTSTAYMELSSLRSEDTAVYFCAREGYYGSSFEAWFASWGQGTTVTVSS VL: DVVMTQTPLSLPVTPGEPASISCRSSQSIVHSNGNTYLEWYLQKPGQSPQLLIYKVSNRFSGVPDRFSGSGSGTDFTLKISRVEAEDVGVYYCFQGSHVLPTFGGGTKVEIK
0.07 | 3.22 | 0.0015 | 466000 | humanized 8H24 hu8H24VHv2/hu8H24VLv2 (antibody, V domains shown, Human IgG; also called 8H24H2L2) VH: QAQLVQSGAEVVKPGSSVKVSCKASGYTFTSYSMHWVRQAPGQGLEWIGAIYPGNDATSYNQKFKGRATLTVDKSTSTAYMELSSLRSEDTAVYFCAREGYYGSSFEAWFASWGQGTTVTVSS VL: DVVMTQTPSSLPVTPGEPASISCRSSQSIVHSNGNTYLEWYLQKPGQSPQLLIYKVSNRFSGVPDRFSGSGSGTDFTLTISRVEAEDVGVYYCFQGSHVLPTFGGGTKVEIK
0.04 | 5.02 | 0.0011 | 218000 | humanized 5E20 hu5E20VHv7/hu5E20VLv4 (antibody, V domains shown, Human IgG; also called 5E20H7L4; hu5E20H7L4) VH: EVQLVESGGGLVQPGGSLRLSCAASGFTFSTYGMSWVRQTPDKRLEWVAIISSGGSYTYYSDTVKGRFTISRDNSKNSLYLQMNSLRAEDTAVYYCSRSSSHWYFDVWGQGTLVTVSS VL: DIQMTQSPSSVSASVGDRVTITCHASQGISSNIGWLQQKPGKAFKGLIYHGTNLKDGVPSRFSGSGSGADFTLTISSLQPEDFADYFCVQYAQFPYTFGQGTKVEKR
0.06 | 4.18 | 0.00108 | 259000 | humanized 5E20 hu5E20VHv7/hu5E20VLv3 (antibody, V domains shown, Human IgG; also called 5E20H7L3) VH: EVQLVESGGGLVQPGGSLRLSCAASGFTFSTYGMSWVRQTPDKRLEWVAIISSGGSYTYYSDTVKGRFTISRDNSKNSLYLQMNSLRAEDTAVYYCSRSSSHWYFDVWGQGTLVTVSS VL: DIQMTQSPSSVSASVGDRVTITCHASQGISSNIGWLQQKPGKAFKGLIYHGTNLKDGVPSRFSGSGSGADFTLTISSLQPEDFATYFCVQYAQFPYTFGQGTKVEKR
